Reference: paper PMC9512048, “Characterization of a xylitol dehydrogenase from Aspergillus flavus and its application in L-xylulose production” (Frontiers in Bioengineering and Biotechnology, 2022)

Experiments:
AfXDH = target: T1, AfXDH (Aspergillus flavus, UniProt A0A7U2N396); assay: product inhibition of xylitol oxidation; assay type: biochemical; conditions: read-out: K i, NADH
T1 construct: gene F9C07_11531; full length, 369 residues, 38,893 Da; 6xHis tag (printed as C-terminal, vector pQE80L); E. coli BL21 (DE3); monomer, 2 Zn per monomer
T1 sequence (A0A7U2N396 1-369): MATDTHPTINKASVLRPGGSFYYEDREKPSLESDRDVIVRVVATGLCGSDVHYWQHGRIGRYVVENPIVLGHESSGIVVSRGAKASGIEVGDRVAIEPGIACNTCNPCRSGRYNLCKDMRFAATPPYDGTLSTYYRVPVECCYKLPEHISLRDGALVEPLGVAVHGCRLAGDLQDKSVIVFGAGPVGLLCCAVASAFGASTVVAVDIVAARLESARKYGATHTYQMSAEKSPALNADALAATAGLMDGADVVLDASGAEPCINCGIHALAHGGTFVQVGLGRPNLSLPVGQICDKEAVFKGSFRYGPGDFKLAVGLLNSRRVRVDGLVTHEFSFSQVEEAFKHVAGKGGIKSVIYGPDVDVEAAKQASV

NADH formation at A340 = substrate: OC[C@@H](O)[C@@H](O)[C@H](O)[C@@H](O)CO; assay: NADH formation at A340; assay type: biochemical, Aspergillus flavus; conditions: NAD+, pH 9.5, only in abstract, b45 prints 16.2 mM for xylitol, so order in abstract may be uncertain
[1] = substrate: OC[C@@H](O)[C@H](O)[C@@H](O)CO; assay: NADH formation at A340, Michaelis-Menten fit; assay type: biochemical, Aspergillus flavus; conditions: NAD+, 20 mM Tris-glycine pH 9.5, 0.1 mM Zn2+, 16.9 in abstract and Table 2, but b45 prints 16.2 mM
Source text: (§1) NADH formation at A340, Michaelis-Menten fit on AfXDH

[2] = substrate: NC(=O)c1ccc[n+]([C@@H]2O[C@H](COP(=O)(O)OP(=O)(O)OC[C@H]3O[C@@H](n4cnc5c(N)ncnc54)[C@H](O)[C@@H]3O)[C@@H](O)[C@H]2O)c1; assay: NADH formation at A340, Michaelis-Menten fit; assay type: biochemical, Aspergillus flavus; conditions: xylitol, 20 mM Tris-glycine pH 9.5, 0.1 mM Zn2+, 0.1-3 mM NAD+, b45 prints 0.15 mM, varied: cofactor
Source text: as §1

Molecule | Ki (AfXDH) | Km (NADH formation at A340) | Km [1] | kcat [1] | kcat/Km [1] | Km [2]
NC(=O)C1=CN([C@@H]2O[C@H](COP(=O)(O)OP(=O)(O)OC[C@H]3O[C@@H](n4cnc5c(N)ncnc54)[C@H](O)[C@@H]3O)[C@@H](O)[C@H]2O)C=CC1 [NADH] | 250 µM |  |  |  |  | 
AfXDH (Aspergillus flavus NRRL3357) (protein, full length, 369 residues, 38,893 Da; 6xHis tag (printed as C-terminal, vector pQE80L); E. coli BL21 (DE3); monomer, 2 Zn per monomer) MATDTHPTINKASVLRPGGSFYYEDREKPSLESDRDVIVRVVATGLCGSDVHYWQHGRIGRYVVENPIVLGHESSGIVVSRGAKASGIEVGDRVAIEPGIACNTCNPCRSGRYNLCKDMRFAATPPYDGTLSTYYRVPVECCYKLPEHISLRDGALVEPLGVAVHGCRLAGDLQDKSVIVFGAGPVGLLCCAVASAFGASTVVAVDIVAARLESARKYGATHTYQMSAEKSPALNADALAATAGLMDGADVVLDASGAEPCINCGIHALAHGGTFVQVGLGRPNLSLPVGQICDKEAVFKGSFRYGPGDFKLAVGLLNSRRVRVDGLVTHEFSFSQVEEAFKHVAGKGGIKSVIYGPDVDVEAAKQASV |  | 16.2 mM | 16.9 mM | 48.67 s⁻¹ | 2880 M⁻¹ s⁻¹ | 0.17 mM
